Measurements from patent US20190388508A1.

Legend:
TNFR2, P20333 [1] = target: T1, TNFR2, P20333; experiment: method not stated; conditions: remark: other sources report otherwise
T1 chain: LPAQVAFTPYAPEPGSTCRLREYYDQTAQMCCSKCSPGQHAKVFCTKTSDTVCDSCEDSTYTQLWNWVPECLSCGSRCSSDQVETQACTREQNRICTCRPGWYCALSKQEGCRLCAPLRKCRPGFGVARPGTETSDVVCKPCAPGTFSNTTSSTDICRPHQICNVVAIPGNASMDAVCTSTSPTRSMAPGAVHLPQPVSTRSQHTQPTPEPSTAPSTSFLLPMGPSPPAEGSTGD

TNFR2, P20333 [2] = target: T1, TNFR2, P20333; experiment: method not stated; reference TNFα; conditions: remark: other sources report otherwise

Kd (TNFR2, P20333 [1]): 1.52 nM
fold higher binding affinity than TNFα (TNFR2, P20333 [2]): 600 fold
B1: Progranulin (PGRN), P28799 18-593 (ligand)
chain: TRCPDGQFCPVACCLDPGGASYSCCRPLLDKWPTTLSRHLGGPCQVDAHCSAGHSCIFTVSGTSSCCPFPEAVACGDGHHCCPRGFHCSADGRSCFQRSGNNSVGAIQCPDSQFECPDFSTCCVMVDGSWGCCPMPQASCCEDRVHCCPHGAFCDLVHTRCITPTGTHPLAKKLPAQRTNRAVALSSSVMCPDARSRCPDGSTCCELPSGKYGCCPMPNATCCSDHLHCCPQDTVCDLIQSKCLSKENATTDLLTKLPAHTVGDVKCDMEVSCPDGYTCCRLQSGAWGCCPFTQAVCCEDHIHCCPAGFTCDTQKGTCEQGPHQVPWMEKAPAHLSLPDPQALKRDVPCDNVSSCPSSDTCCQLTSGEWGCCPIPEAVCCSDHQHCCPQGYTCVAEGQCQRGSEIVAGLEKMPARRASLSHPRDIGCDQHTSCPVGQTCCPSLGGSWACCQLPHAVCCEDRQHCCPAGYTCNVKARSCEKEVVSAQPATFLARSPHVGVKDVECGEGHFCHDNQTCCRDNRQGWACCPYRQGVCCADRRHCCPAGFRCAARGTKCLRREAPRWDAPLRDPALRQLL
